Assay results taken from patent publication US20160159928A1.
Changes are numbered by the printed parent chain. Names may count otherwise. “And” between values parts separate entries of the source, which are not always exact repeats. Equal values may be shown once. Each block holds one binder with its values, some of them ahead of it.

What was measured:
CXCR1 = CXCR1 (UniProt P25024); experiment: cell-based or functional assay
Kv1.3 (human) = Kv1.3 (human) (UniProt P22001); experiment: cell-based or functional assay
Chain of Kv1.3 (human) (P22001 whole entry): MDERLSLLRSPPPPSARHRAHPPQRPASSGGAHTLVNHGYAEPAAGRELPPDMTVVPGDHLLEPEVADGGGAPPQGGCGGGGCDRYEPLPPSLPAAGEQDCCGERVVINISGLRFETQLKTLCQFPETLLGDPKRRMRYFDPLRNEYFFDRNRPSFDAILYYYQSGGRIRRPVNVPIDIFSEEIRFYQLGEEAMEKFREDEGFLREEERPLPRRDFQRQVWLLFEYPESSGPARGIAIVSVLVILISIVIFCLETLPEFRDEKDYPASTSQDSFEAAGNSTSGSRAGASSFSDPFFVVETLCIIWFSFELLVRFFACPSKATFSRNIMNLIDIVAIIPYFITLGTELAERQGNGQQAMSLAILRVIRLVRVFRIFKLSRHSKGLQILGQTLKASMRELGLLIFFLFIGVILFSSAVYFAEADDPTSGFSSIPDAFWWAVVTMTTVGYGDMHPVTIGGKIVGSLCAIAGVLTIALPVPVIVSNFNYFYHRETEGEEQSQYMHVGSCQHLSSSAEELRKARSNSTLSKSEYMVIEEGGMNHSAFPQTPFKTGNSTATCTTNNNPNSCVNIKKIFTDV

Chain of CXCR1 (P25024 whole entry): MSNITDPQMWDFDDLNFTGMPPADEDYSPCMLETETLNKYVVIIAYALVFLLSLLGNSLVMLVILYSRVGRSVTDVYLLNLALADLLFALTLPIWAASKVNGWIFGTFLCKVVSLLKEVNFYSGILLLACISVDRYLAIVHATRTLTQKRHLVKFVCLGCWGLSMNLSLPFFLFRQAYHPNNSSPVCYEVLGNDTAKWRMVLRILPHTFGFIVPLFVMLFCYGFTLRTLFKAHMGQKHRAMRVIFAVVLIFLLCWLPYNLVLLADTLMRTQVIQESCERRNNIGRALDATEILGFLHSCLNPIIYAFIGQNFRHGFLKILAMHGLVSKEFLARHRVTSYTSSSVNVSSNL

B3: VH4-34+CDR3-IL8_CDR1-Cow_CDR2-Cow with VL1-51 S2A, T5N, P8S, A12G, A13S, P14L, K46R, L47T, D51G, N52D, N53T (antibody)
VH: QVQLQQWGAGLLKPSETLSLTCTASGFSLSDKAVGWIRQPPGKGLEWLGSIDTGGNTGYNPSLKSRVTISVDTSKNQFSLKLSSVTAADTAVYYCTSVHQETKKYQSPRSAKELRCQCIKTYSKPFHPKFIKELRVIESGPHCANTEIIVKLSDGRELCLDPKENWVQRVVEKFLKRAENSGSGSYTYNYEWHVDVWGQGLLVTVSSAS
light: QAVLNQPSSVSGSLGQKVTISCSGSSSNIGNNYVSWYQQLPGTAPRTLIYGDTKRPSGIPDRFSGSKSGTSATLGITGLQTGDEADYYCASAEDSSSNAVFGSGTTLTVLGQPKAAPSVTLFPPSSEELQANKATLVCLISDFYPGAVTVAWKADSSPVKAGVETTTPSKQSNNKYAASSYLSLTPEQWKSHRSYSCQVTHEGSTVEKTVAPTECS
- luminescence at 0.4 nM IL-8 domains (CXCR1): 6310
- luminescence at 1.6 nM IL-8 domains (CXCR1): 7400
- luminescence at 6.25 nM IL-8 domains (CXCR1): 10200
- luminescence at 25 nM IL-8 domains (CXCR1): 15400
- luminescence at 100 nM IL-8 domains (CXCR1): 21600

B5: VH4-34 MutE 3xGGS NoKnob IgG (antibody, V domains shown)
VH: QVQLREWGAGLLKPSETLSLTCAVYGGSFSDKYWSWIRQPPGKGLEWIGSINHSGSTNYNPSLKSRVTISVDTSKNQFSLKLSSVTAADTAVYYCTSVHQETKKYQSGGSGGSGGSSYTYNYEWHVDVWGQGLLVTVSS
VL: QAVLNQPSSVSGSLGQKVTISCSGSSSNIGNNYVSWYQQLPGTAPRTLIYGDTKRPSGIPDRFSGSKSGTSATLGITGLQTGDEADYYCASAEDSSSNAVFGSGTTLTVLG
- IL-2 ELISA (A450), Donor 1, [IgG] 0.01 nM (Kv1.3 (human)): 2.18 A450 and 2.23 A450
- IL-2 ELISA (A450), Donor 1, [IgG] 0.75 nM (Kv1.3 (human)): 2.19 A450 and 2.17 A450
- IL-2 ELISA (A450), Donor 1, [IgG] 68 nM (Kv1.3 (human)): 1.42 A450 and 1.31 A450
- IL-2 ELISA (A450), Donor 2, [IgG] 0.01 nM (Kv1.3 (human)): 1.75 A450
- IL-2 ELISA (A450), Donor 2, [IgG] 0.75 nM (Kv1.3 (human)): 1.61 A450 and 1.42 A450
- IL-2 ELISA (A450), Donor 2, [IgG] 68 nM (Kv1.3 (human)): 1.32 A450 and 0.934 A450
- IL-17 ELISA (A450), Donor 1, 0.00 nM IgG (Kv1.3 (human)): 0 A450
- IL-17 ELISA (A450), Donor 1, 0.02 nM IgG (Kv1.3 (human)): 1.35 A450
- IL-17 ELISA (A450), Donor 1, 0.08 nM IgG (Kv1.3 (human)): 1.34 A450
- IL-17 ELISA (A450), Donor 1, 0.34 nM IgG (Kv1.3 (human)): 1.27 A450
- IL-17 ELISA (A450), Donor 1, 1.54 nM IgG (Kv1.3 (human)): 1.18 A450
- IL-17 ELISA (A450), Donor 1, 6.9 nM IgG (Kv1.3 (human)): 0.828 A450
- IL-17 ELISA (A450), Donor 1, 31 nM IgG (Kv1.3 (human)): 0.453 A450
- IL-17 ELISA (A450), Donor 1, 140 nM IgG (Kv1.3 (human)): 0.247 A450
- IL-17 ELISA (A450), Donor 2, 0.00 nM IgG (Kv1.3 (human)): 0 A450
- IL-17 ELISA (A450), Donor 2, 0.02 nM IgG (Kv1.3 (human)): 0.959 A450
- IL-17 ELISA (A450), Donor 2, 0.08 nM IgG (Kv1.3 (human)): 0.777 A450
- IL-17 ELISA (A450), Donor 2, 0.34 nM IgG (Kv1.3 (human)): 0.82 A450
- IL-17 ELISA (A450), Donor 2, 1.54 nM IgG (Kv1.3 (human)): 0.785 A450
- IL-17 ELISA (A450), Donor 2, 6.9 nM IgG (Kv1.3 (human)): 0.641 A450
- IL-17 ELISA (A450), Donor 2, 31 nM IgG (Kv1.3 (human)): 0.364 A450
- IL-17 ELISA (A450), Donor 2, 140 nM IgG (Kv1.3 (human)): 0.096 A450
- TNF-α ELISA (A450), Donor 1, 0.00 nM IgG (Kv1.3 (human)): 0 A450
- TNF-α ELISA (A450), Donor 1, 0.02 nM IgG (Kv1.3 (human)): 1.52 A450
- TNF-α ELISA (A450), Donor 1, 0.08 nM IgG (Kv1.3 (human)): 1.45 A450
- TNF-α ELISA (A450), Donor 1, 0.34 nM IgG (Kv1.3 (human)): 1.42 A450
- TNF-α ELISA (A450), Donor 1, 1.54 nM IgG (Kv1.3 (human)): 1.33 A450
- TNF-α ELISA (A450), Donor 1, 6.9 nM IgG (Kv1.3 (human)): 1.1 A450
- TNF-α ELISA (A450), Donor 1, 31 nM IgG (Kv1.3 (human)): 0.808 A450
- TNF-α ELISA (A450), Donor 1, 140 nM IgG (Kv1.3 (human)): 0.402 A450
- TNF-α ELISA (A450), Donor 1, [IgG] 0.01 nM (Kv1.3 (human)): 1.91 A450 and 1.88 A450
- TNF-α ELISA (A450), Donor 1, [IgG] 0.75 nM (Kv1.3 (human)): 1.76 A450 and 1.67 A450
- TNF-α ELISA (A450), Donor 1, [IgG] 68 nM (Kv1.3 (human)): 1.12 A450 and 1.08 A450
- TNF-α ELISA (A450), Donor 2, 0.00 nM IgG (Kv1.3 (human)): 0 A450
- TNF-α ELISA (A450), Donor 2, 0.02 nM IgG (Kv1.3 (human)): 1.56 A450
- TNF-α ELISA (A450), Donor 2, 0.08 nM IgG (Kv1.3 (human)): 1.42 A450
- TNF-α ELISA (A450), Donor 2, 0.34 nM IgG (Kv1.3 (human)): 1.55 A450
- TNF-α ELISA (A450), Donor 2, 1.54 nM IgG (Kv1.3 (human)): 1.29 A450
- TNF-α ELISA (A450), Donor 2, 6.9 nM IgG (Kv1.3 (human)): 0.916 A450
- TNF-α ELISA (A450), Donor 2, 31 nM IgG (Kv1.3 (human)): 0.438 A450
- TNF-α ELISA (A450), Donor 2, 140 nM IgG (Kv1.3 (human)): 0.167 A450
- TNF-α ELISA (A450), Donor 2, [IgG] 0.01 nM (Kv1.3 (human)): 2.23 A450 and 2.1 A450
- TNF-α ELISA (A450), Donor 2, [IgG] 0.75 nM (Kv1.3 (human)): 2.1 A450 and 1.88 A450
- TNF-α ELISA (A450), Donor 2, [IgG] 68 nM (Kv1.3 (human)): 1.8 A450 and 1.32 A450

B6: VH4-34 MutE 3xGGS NoKnob (antibody, V domains shown)
VH: B5 VH
VL: B5 VL
- IL-2 ELISA (A450); Donor 1; 0.04 nM IgG (Kv1.3 (human)): 0.333 A450
- IL-2 ELISA (A450); Donor 1; 0.6 nM IgG (Kv1.3 (human)): 0.356 A450
- IL-2 ELISA (A450); Donor 1; 9.4 nM IgG (Kv1.3 (human)): 0.371 A450
- IL-2 ELISA (A450); Donor 1; 150 nM IgG (Kv1.3 (human)): 0.232 A450
- IL-2 ELISA (A450); Donor 2; 0.04 nM IgG (Kv1.3 (human)): 0.976 A450
- IL-2 ELISA (A450); Donor 2; 0.6 nM IgG (Kv1.3 (human)): 0.795 A450
- IL-2 ELISA (A450); Donor 2; 9.4 nM IgG (Kv1.3 (human)): 0.808 A450
- IL-2 ELISA (A450); Donor 2; 150 nM IgG (Kv1.3 (human)): 0.475 A450
- TNF-α ELISA (A450); Donor 1; 0.04 nM IgG (Kv1.3 (human)): 0.76 A450
- TNF-α ELISA (A450); Donor 1; 0.6 nM IgG (Kv1.3 (human)): 0.813 A450
- TNF-α ELISA (A450); Donor 1; 9.4 nM IgG (Kv1.3 (human)): 0.821 A450
- TNF-α ELISA (A450); Donor 1; 150 nM IgG (Kv1.3 (human)): 0.599 A450
- TNF-α ELISA (A450); Donor 2; 0.04 nM IgG (Kv1.3 (human)): 0.736 A450
- TNF-α ELISA (A450); Donor 2; 0.6 nM IgG (Kv1.3 (human)): 0.631 A450
- TNF-α ELISA (A450); Donor 2; 9.4 nM IgG (Kv1.3 (human)): 0.622 A450
- TNF-α ELISA (A450); Donor 2; 150 nM IgG (Kv1.3 (human)): 0.366 A450

The remaining lines, values ahead:

- luminescence at 0.1 nM IL-8 domains (CXCR1): 4180
- luminescence at 0.4 nM IL-8 domains (CXCR1): 5190
- luminescence at 0.5 nM IL-8 domains (CXCR1): 6620
- luminescence at 1.6 nM IL-8 domains (CXCR1): 6410
- luminescence at 2.2 nM IL-8 domains (CXCR1): 13500
- luminescence at 6.25 nM IL-8 domains (CXCR1): 10500
- luminescence at 9.9 nM IL-8 domains (CXCR1): 21900
- luminescence at 25 nM IL-8 domains (CXCR1): 14600
- luminescence at 44 nM IL-8 domains (CXCR1): 24000
- luminescence at 100 nM IL-8 domains (CXCR1): 18000
- luminescence at 200 nM IL-8 domains (CXCR1): 25000
B1: VH4-34+CDR3-IL8_CDR1-Cow_Q5RQ6E with VL1-51 S2A, T5N, P8S, A12G, A13S, P14L, K46R, L47T, D51G, N52D, N53T (antibody)
VH: QVQLREWGAGLLKPSETLSLTCTASGFSLSDKAVGWIRQPPGKGLEWIGEINHSGSTNYNPSLKSRVTISVDTSKNQFSLKLSSVTAADTAVYYCTSVHQETKKYQSPRSAKELRCQCIKTYSKPFHPKFIKELRVIESGPHCANTEIIVKLSDGRELCLDPKENWVQRVVEKFLKRAENSGSGSYTYNYEWHVDVWGQGLLVTVSS
light: B3 light

- luminescence at 0.1 nM IL-8 domains (CXCR1): 4060
- luminescence at 0.4 nM IL-8 domains (CXCR1): 6190
- luminescence at 0.5 nM IL-8 domains (CXCR1): 5300
- luminescence at 1.6 nM IL-8 domains (CXCR1): 8160
- luminescence at 2.2 nM IL-8 domains (CXCR1): 10300
- luminescence at 6.25 nM IL-8 domains (CXCR1): 13500
- luminescence at 9.9 nM IL-8 domains (CXCR1): 17100
- luminescence at 25 nM IL-8 domains (CXCR1): 21000
- luminescence at 44 nM IL-8 domains (CXCR1): 23300
- luminescence at 100 nM IL-8 domains (CXCR1): 25900
- luminescence at 200 nM IL-8 domains (CXCR1): 22300
B2: VH4-34+CDR3-IL8_CDR1-G31DY32K_CDR2-E50S_Q5RQ6E with VL1-51 S2A, T5N, P8S, A12G, A13S, P14L, K46R, L47T, D51G, N52D, N53T (antibody)
VH: B1 VH with T23A, A24V, S25Y, F27G, L29F, A33Y, V34W, G35S, E50S
light: B3 light

- luminescence at 0.4 nM IL-8 domains (CXCR1): 5420
- luminescence at 1.6 nM IL-8 domains (CXCR1): 5710
- luminescence at 6.25 nM IL-8 domains (CXCR1): 7160
- luminescence at 25 nM IL-8 domains (CXCR1): 11200
- luminescence at 100 nM IL-8 domains (CXCR1): 15500
B4: VH4-34+CDR3-IL8_CDR1-G31DY32K_CDR2-E50S with VL1-51 S2A, T5N, P8S, A12G, A13S, P14L, K46R, L47T, D51G, N52D, N53T (antibody)
VH: QVQLQQWGAGLLKPSETLSLTCAVYGGSFSDKYWSWIRQPPGKGLEWIGSINHSGSTNYNPSLKSRVTISVDTSKNQFSLKLSSVTAADTAVYYCTSVHQETKKYQSPRSAKELRCQCIKTYSKPFHPKFIKELRVIESGPHCANTEIIVKLSDGRELCLDPKENWVQRVVEKFLKRAENSGSGSYTYNYEWHVDVWGQGLLVTVSSAS
light: B3 light
